We go through seven molecules from patent publication US6950754.

Some results are limits rather than exact numbers.

One assay deals with 6D. As to the kind of experiment: size exclusion chromatography, self-association. On the technique in general: SEC sorts molecules by how far they enter the pores of the column.
The target in another assay is 6C. Description: size exclusion chromatography, self-association.
Another assay has as its target 6F. As to the kind of experiment: size exclusion chromatography, self-association.
Another assay has as its target 6B. Description: size exclusion chromatography, self-association.
The target in assay [1] is pda8d. Description: sedimentation equilibrium, monomer-dimer-tetramer model; dimer-to-tetramer self-association.
Assay [2] addresses pda8d. Description: sedimentation equilibrium, monomer-dimer-tetramer model; monomer-to-dimer self-association.
Another assay concerns the target 6A. As to the kind of experiment: size exclusion chromatography, self-association.
The target of a further assay is 6E. As to the kind of experiment: size exclusion chromatography, self-association.

B1: 6D (peptide)
peptide: RMRELEEKVRRLLRKNEDLEREVKRLKELVGER
modifications: not checked
In turn, B1 came in with an oligomerization state (N) in the assay with 6D of 2.

B2: 6C (peptide)
peptide: RMARLEAKVAALLAKNRRLEREVARLKALVGER
modifications: not checked
With B2, the oligomerization state (N) with 6C stood at 2.

B3: 6F (peptide)
peptide: RMAALEAKVAALLAKNAALEAEVAALKALVGER
modifications: not checked
As for B3, in the assay with 6F, the oligomerization state (N) is 4.

B4: 6B (peptide)
peptide: RMEKLEQKVKELLRKNERLEEEVERLKQLVGER
modifications: not checked
In the assay with 6B, B4 registered an oligomerization state (N) of 2.

B5: pda8d (peptide)
peptide: KPYTARIKGRTFSNEKELRDFLETFTGR
modifications: not checked
As for B5, the Kd – broadly, the equilibrium constant for the complex coming apart – with pda8d [1] is over 4000 µM; in the assay with pda8d [2], 500 to 1500 µM.

B6: 6A (peptide)
peptide: RMEKLEDKVRELLRKNRRLEEEVRRLKELVGER
modifications: not checked
Turning to B6, the oligomerization state (N) with 6A amounted to 2.

B7: 6E (peptide)
peptide: RMNTLERKVAKLLSKNANLEHEVNTLKQLVGER
modifications: not checked
The molecule B7 returned an oligomerization state (N) with 6E of 2.
